Laboratory results published in patent US20230365662A1.
Substitutions are numbered along the chain they refer to. In names and notes the source's numbering stands. Several values for one entry are separate records, joined by “and”; a condition that tells them apart may be missing. Equal entries are not always repeated.

B1: parental mouse (KB001) Fab FASEBA, VL variant S95C (Fab, V domains shown)
VH: EVQLKQSGPGLVAPSQSLSITCTVSGFSLSIYSVHWVRQPPGKGLEWLGMIWGGGSSDYNSALKSRLSISKDNSKSQVFLKMNSLQTDDTAMYYCARNGNFYAMDYWGQGTSVTVSS
VL: QIVLTQSPAIMSASLGERVTMTCTASSSVSSSFLHWYQQKPGSSPQLWIYSTSNLASGVPARFSGSGSGTSYSLTISSMEAEDAATYYCHQYHHCPYIYTFGGGTKLEIK
B2: KB001 parental mouse Fab VH variant S65H (Fab, V domains shown)
VH: B1 VH with S65H
VL: B1 VL with C95S
B3: parental mouse (KB001) Fab FASEBA, VL variant I98R (Fab, V domains shown)
VH: B1 VH
VL: B1 VL with C95S, I98R
B4: parental mouse (KB001) Fab FASEBA, VL variant Y97V (Fab, V domains shown)
VH: B1 VH
VL: B1 VL with C95S, Y97V
B5: parental mouse (KB001) Fab FASEBA, VL variant I98L (Fab, V domains shown)
VH: B1 VH
VL: B1 VL with C95S, I98L
B6: KB001 parental mouse Fab VH variant K64D (Fab, V domains shown)
VH: B1 VH with K64D
VL: B1 VL with C95S
B7: parental mouse (KB001) Fab FASEBA, VL variant Y97H (Fab, V domains shown)
VH: B1 VH
VL: B1 VL with C95S, Y97H
B8: KB001 parental mouse Fab VH variant S65L (Fab, V domains shown)
VH: B1 VH with S65L
VL: B1 VL with C95S
B9: KB001 parental mouse Fab VH variant S65R (Fab, V domains shown)
VH: B1 VH with S65R
VL: B1 VL with C95S
B10: parental mouse (KB001) Fab FASEBA, VL variant T100I (Fab, V domains shown)
VH: B1 VH
VL: B1 VL with C95S, T100I
B11: KB001 parental mouse Fab VH variant K64E (Fab, V domains shown)
VH: B1 VH with K64E
VL: B1 VL with C95S
B12: parental mouse (KB001) Fab FASEBA, VL variant Y97R (Fab, V domains shown)
VH: B1 VH
VL: B1 VL with C95S, Y97R
B13: KB001 parental mouse Fab VH variant K64M (Fab, V domains shown)
VH: B1 VH with K64M
VL: B1 VL with C95S
B14: KB001 parental mouse Fab VH variant K64L (Fab, V domains shown)
VH: B1 VH with K64L
VL: B1 VL with C95S
B15: KB001 parental mouse Fab VH variant S65F (Fab, V domains shown)
VH: B1 VH with S65F
VL: B1 VL with C95S
B16: parental mouse (KB001) Fab FASEBA, VL variant I98V (Fab, V domains shown)
VH: B1 VH
VL: B1 VL with C95S, I98V
B17: parental mouse (KB001) Fab FASEBA, VL variant Y97K (Fab, V domains shown)
VH: B1 VH
VL: B1 VL with C95S, Y97K
B18: parental mouse (KB001) Fab FASEBA, VL variant Y97I (Fab, V domains shown)
VH: B1 VH
VL: B1 VL with C95S, Y97I
B19: parental mouse (KB001) Fab FASEBA, VL variant Y97Q (Fab, V domains shown)
VH: B1 VH
VL: B1 VL with C95S, Y97Q
B20: KB001 parental mouse Fab VH variant S65P (Fab, V domains shown)
VH: B1 VH with S65P
VL: B1 VL with C95S
B21: parental mouse (KB001) Fab FASEBA, VL variant T100P (Fab, V domains shown)
VH: B1 VH
VL: B1 VL with C95S, T100P
B22: KB001 parental mouse Fab VH variant K64Q (Fab, V domains shown)
VH: B1 VH with K64Q
VL: B1 VL with C95S
B23: parental mouse (KB001) Fab FASEBA, VL variant Y97L (Fab, V domains shown)
VH: B1 VH
VL: B1 VL with C95S, Y97L
B24: parental mouse (KB001) Fab FASEBA, VL variant Y97F (Fab, V domains shown)
VH: B1 VH
VL: B1 VL with C95S, Y97F
B25: parental mouse (KB001) Fab FASEBA, VL variant Y97S (Fab, V domains shown)
VH: B1 VH
VL: B1 VL with C95S, Y97S
B26: parental mouse (KB001) Fab FASEBA, VL variant I98M (Fab, V domains shown)
VH: B1 VH
VL: B1 VL with C95S, I98M
B27: KB001 parental mouse Fab VH variant K64H (Fab, V domains shown)
VH: B1 VH with K64H
VL: B1 VL with C95S
B28: KB001 parental mouse Fab VH variant S65Y (Fab, V domains shown)
VH: B1 VH with S65Y
VL: B1 VL with C95S
B29: parental mouse (KB001) Fab FASEBA, VL variant T100V (Fab, V domains shown)
VH: B1 VH
VL: B1 VL with C95S, T100V
B30: KB001 parental mouse Fab VH variant K64G (Fab, V domains shown)
VH: B1 VH with K64G
VL: B1 VL with C95S

How the values were obtained:
[1] = biological target: HRgpA-6H (Porphyromonas gingivalis) (UniProt P28784); test: ELISA, Fab FASEBA supernatant on coated HRgpA-6H
[2] = biological target: HRgpA-6H (Porphyromonas gingivalis) (UniProt P28784); test: ELISA, Fab FASEBA supernatant on coated HRgpA-6H (0.0625 ug/ml)

Sequence of UniProt P28784 (P28784 228-991 limits assumed): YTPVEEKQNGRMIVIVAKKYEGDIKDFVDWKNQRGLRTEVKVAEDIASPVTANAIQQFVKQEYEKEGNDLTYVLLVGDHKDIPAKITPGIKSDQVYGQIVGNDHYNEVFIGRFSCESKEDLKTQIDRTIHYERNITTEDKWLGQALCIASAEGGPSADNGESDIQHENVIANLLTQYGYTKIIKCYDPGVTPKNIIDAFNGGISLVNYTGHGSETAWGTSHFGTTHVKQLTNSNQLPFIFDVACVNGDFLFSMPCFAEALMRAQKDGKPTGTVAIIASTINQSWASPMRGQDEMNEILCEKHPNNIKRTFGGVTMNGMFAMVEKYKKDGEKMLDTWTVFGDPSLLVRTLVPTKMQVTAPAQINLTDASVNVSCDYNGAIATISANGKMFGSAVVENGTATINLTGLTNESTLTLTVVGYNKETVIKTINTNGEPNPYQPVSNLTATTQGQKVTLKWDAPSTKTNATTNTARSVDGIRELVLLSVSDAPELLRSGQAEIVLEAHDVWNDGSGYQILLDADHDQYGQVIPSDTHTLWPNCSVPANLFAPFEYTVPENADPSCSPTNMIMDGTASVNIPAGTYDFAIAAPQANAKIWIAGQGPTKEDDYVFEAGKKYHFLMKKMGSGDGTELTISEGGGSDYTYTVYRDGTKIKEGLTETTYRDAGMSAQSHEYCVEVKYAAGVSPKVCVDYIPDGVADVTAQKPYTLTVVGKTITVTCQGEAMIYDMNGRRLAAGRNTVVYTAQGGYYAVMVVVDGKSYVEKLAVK

Binder | OD450nm [1] | Ratio OD(Variant)/OD(WT) [1] | OD450nm [2] | Ratio OD(Variant)/OD(WT) [2]
B1 | 0.849 OD450nm | 0.924 ratio to WT |  | 
B2 |  |  | 0.823 and 0.767 | 0.995 and 0.927
B3 | 0.726 OD450nm and 0.722 OD450nm | 0.83 ratio to WT and 0.825 ratio to WT |  | 
B4 | 0.662 OD450nm | 0.839 ratio to WT |  | 
B5 | 0.836 OD450nm | 0.955 ratio to WT |  | 
B6 |  |  | 0.781 | 0.944
B7 | 0.775 OD450nm | 0.982 ratio to WT |  | 
B8 |  |  | 0.728 | 0.88
B9 |  |  | 0.794 | 0.96
B10 | 0.493 OD450nm | 0.942 ratio to WT |  | 
B11 |  |  | 0.789 | 0.954
B12 | 0.769 OD450nm | 0.975 ratio to WT |  | 
B13 |  |  | 0.784 | 0.948
B14 |  |  | 0.664 | 0.803
B15 |  |  | 0.74 | 0.895
B16 | 0.832 OD450nm and 0.838 OD450nm and 0.787 OD450nm | 0.951 ratio to WT and 0.958 ratio to WT and 0.899 ratio to WT |  | 
B17 | 0.654 OD450nm | 0.829 ratio to WT |  | 
B18 | 0.667 OD450nm | 0.845 ratio to WT |  | 
B19 | 0.687 OD450nm | 0.871 ratio to WT |  | 
B20 |  |  | 0.814 | 0.984
B21 | 0.46 OD450nm | 0.879 ratio to WT |  | 
B22 |  |  | 0.789 | 0.954
B23 | 0.739 OD450nm | 0.937 ratio to WT |  | 
B24 | 0.75 OD450nm and 0.756 OD450nm | 0.951 ratio to WT and 0.958 ratio to WT |  | 
B25 | 0.633 OD450nm | 0.802 ratio to WT |  | 
B26 | 0.729 OD450nm | 0.833 ratio to WT |  | 
B27 |  |  | 0.788 and 0.806 and 0.73 | 0.953 and 0.975 and 0.883
B28 |  |  | 0.724 | 0.875
B29 | 0.461 OD450nm and 0.428 OD450nm | 0.881 ratio to WT and 0.818 ratio to WT |  | 
B30 |  |  | 0.811 | 0.981
